Results as given in paper PMC7117682 (2020).

Target: CD47 naturally expressed on CD47(+) Jurkat T lymphoma cells (human (endogenous in Jurkat), UniProt Q08722 19-323)
Assay: FACS

Chain of CD47 naturally expressed on CD47(+) Jurkat T lymphoma cells (Q08722 19-323): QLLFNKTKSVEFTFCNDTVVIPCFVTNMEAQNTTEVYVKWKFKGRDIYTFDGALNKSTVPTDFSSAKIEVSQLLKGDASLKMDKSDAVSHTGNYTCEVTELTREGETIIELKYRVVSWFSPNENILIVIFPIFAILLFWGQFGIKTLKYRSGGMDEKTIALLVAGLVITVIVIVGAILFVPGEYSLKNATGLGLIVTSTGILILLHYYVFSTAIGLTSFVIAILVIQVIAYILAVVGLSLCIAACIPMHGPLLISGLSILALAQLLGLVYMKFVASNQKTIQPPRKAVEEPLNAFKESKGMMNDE

EC50: 2000 nM
B1: SIRPα-Avi-biotin (soluble, biotin-conjugated SIRPα d1 construct; allelic variant not stated for the experiment) (domain or fragment)
chain: EELQVIQPDKSVLVAAGETATLRCTATSLIPVGPIQWFRGAGPGRELIYNQKEGHFPRVTTVSDLTKRNNMDFSIRIGNITPADAGTYYCVKFRKGSPDDVEFKSG
modifications: biotin (biotin-conjugated, SIRPα-Avi-biotin)
